Laboratory results published in the Human Domainome abundance scans (Beltran et al. 2025).

B1: Histone-lysine N-methyltransferase 2A, residues 1148 to 1194; numbered along this chain, Q03164 (parent)
chain: KGRRSRRCGQCPGCQVPEDCGVCTNCLDKPKFGGRNIKKQCCKMRKC

Variants of: B1
Test: abundance fitness (aPCA) (normalised: wild type 0, dead -1); higher = more abundant; growth selection in yeast, the domain comes from the species named
Details: Homo sapiens

Abundance fitness, by site and new letter:
P30: N 0.057, E 0.109, G -0.213, K -0.669, V -0.594, H -0.26, A -0.187, W -0.711, T -0.312, Y -0.712, D -0.77, R -0.432, I -0.256, Q -0.381, S -0.303, L -0.361, F -0.705
K29: Y -0.564, N -0.55, F -0.648, S -0.416, T -0.397, M -0.408, P -0.58, E -0.519, G -0.463, R -0.368, W -0.686, L -0.671, Q -0.427, D -0.411, V -0.51, H -0.618
N25: G -0.342, T -0.325, W -0.107, Q -0.481, F -0.377, H -0.374, Y -0.148, I 0.121, K -0.633, S 0.024, A -0.078, L -0.536, V -0.02, D -0.233, R -0.599, M -0.084
G33: W -0.853, T -0.526, N -0.289, K -0.936, A -0.394, V -0.418, R -0.783, F -1.04, L -0.631, C -0.677, P -0.707, Y -0.613, M -0.494, Q -0.535
T24: P -0.091, N -0.521, W -0.392, F -0.412, G -0.207, Y -0.238, S -0.256, H -0.069, K -0.297, L -0.477, Q -0.067, V -0.479, I -0.345, R -0.611, M -0.149
C26: D -0.76, T -0.959, Y -0.851, S -1.02, G -0.974, L -0.902, V -1.04, F -0.991, E -0.81, P -0.75, W -0.778, K -0.785, R -0.602, M -0.876, H -0.988, A -0.914
K38: E -0.166, F -0.125, Q -0.348, D -0.111, R -0.036, T -0.221, A -0.099, M -0.136, P -0.29, I 0.275, G -0.35, L 0.143, C -0.363, S -0.011, W -0.245
I37: K -0.166, T -0.153, P -0.554, D 0.265, V 0.02, Q -0.024, Y -0.265, C 0.095, E 0.274, M 0.002, W -0.431, H -0.258, L -0.159, A -0.025, S 0.037, R -0.421, N 0.093, G -0.056
K43: L 0.07, V 0.108, F -0.224, A -0.015, H 0.37, W -0.12, E 0.179, M -0.031, P -0.85, R -0.27, D 0.018, I 0.121, G -0.312, Q -0.215, Y 0.046, S -0.112, T 0.09
K39: Y -0.683, G -0.004, L -0.086, D 0.101, T -0.187, I -0.161, S 0.007, A -0.074, P -0.06, H -0.11, V 0.063, M -0.124, W -0.416, Q 0.042, E 0.156, C -0.2, N -0.35, R -0.185
L27: E -0.129, Q -0.064, D -0.419, F -0.353, V -0.539, H -0.34, W -0.554, P -0.799, Y -0.334, A -0.257, G -0.583, S -0.554, K -0.293, C -0.569, R -0.35, N -0.518
F32: Y -0.068, I -0.641, E 0.186, N -0.228, Q -0.09, A -0.013, H -0.091, P -0.257, K -0.39, W -0.337, C -0.286, S -0.185, R -0.496, T -0.272, L -0.327, D 0.01
R35: Q 0.065, H 0.128, A 0.189, C -0.229, S -0.01, T -0.016, K 0.19, N 0.343, W -0.524, G 0.022, I -0.438, V -0.089, D 0.168, M 0.143, F -0.043, Y -0.036, P 0.075
D28: V -0.374, I -0.628, W -1.05, P -0.937, N -0.326, L -0.921, M -0.761, F -0.856, C -0.868, S -0.626, G -0.461, E -0.502, R -0.618, T -1.09, A -0.475, Y -0.657, K -0.752, H -1, Q -0.509
C41: K -0.123, Y -0.322, W -0.095, M 0.127, T -0.195, F -0.095, L -0.241, I 0.048, V 0.094, P 0.028, A -0.104, N 0.27, Q 0.119, S -0.066, R -0.014, G 0.04, D 0.3, H 0.098
C42: M -1.01, N -1, D -0.849, Y -0.792, P -0.709, W -0.821, I -1, T -0.824, F -0.647, G -0.909, A -0.952, H -0.809, Q -0.955, V -0.813, E -0.604, R -0.569, L -0.651
G34: S -0.288, A -0.463, V -0.453, P -0.448, Y -0.774, W -0.906, H -1.07, K -0.478, D -0.236, I -0.787, R -0.52, F -0.409, C -0.32, T -0.316, E -0.133
N36: W -0.595, T -0.731, Y -0.569, Q 0.151, M -0.274, F -0.694, K -0.63, D 0.134, I -0.952, C -0.344, H -0.076, L -0.651, E 0.003, G -0.091, V -0.814, P -0.62, R -0.672, S -0.523, A -0.339
K31: W -0.685, P -0.227, L -0.316, A -0.195, N -0.159, E -0.271, I -0.24, H -0.429, S -0.404, F -0.627, G -0.319, Y -0.253, R -0.311, T -0.264, Q -0.285, M -0.444
Q40: H -0.312, R -0.229, I -0.772, Y -0.493, T -0.234, N -0.461, W -0.545, P -0.512, C -0.284, A -0.317, S -0.103, G 0.034, D -0.03, M -0.138, V -0.042, K -0.249, L -0.177, F -0.089, E 0.312
